Laboratory results reported in article PMC1540706, “Role of the AP2 β-Appendage Hub in Recruiting Partners for Clathrin-Coated Vesicle Assembly” (PLoS Biology, 2006).
Where a chain is given by its changes, count along the chain named.

T1: human β2-appendage (700–937) R879A used for ITC (human, UniProt P63010 700-937, R879A)
T1 construct: AP2 β2-adaptin appendage domain, human, residues 700-937; also called R879A mutant of the β-appendage
T1 sequence (looked up): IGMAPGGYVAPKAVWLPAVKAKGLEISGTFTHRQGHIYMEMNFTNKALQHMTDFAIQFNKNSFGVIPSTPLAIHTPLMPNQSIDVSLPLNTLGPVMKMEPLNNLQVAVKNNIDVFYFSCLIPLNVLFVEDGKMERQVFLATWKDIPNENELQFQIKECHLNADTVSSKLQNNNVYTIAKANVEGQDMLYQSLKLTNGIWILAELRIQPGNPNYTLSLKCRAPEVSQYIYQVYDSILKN

B1: β-arrestin P-long peptide (peptide)
peptide: DDDIVFEDFARQRLKGMKDD
notes: peptide from the C-terminus of β-arrestin; also called β-arrestin peptide; arrestin peptide; source: synthetic peptide, bought: Institute of Biomolecular Sciences (University of Southampton)
B2: human β2-appendage (700–937) used for ITC (domain or fragment, UniProt P63010 700-937, looked up)
chain: T1 sequence (looked up) with A180R
notes: AP2 β2-adaptin appendage domain, human, residues 700-937; also called wild-type β2-appendage; β-appendage
B3: Eps15 P-short peptide (peptide)
peptide: SFGDGFADFSTL
notes: peptide from Eps15; also called Eps15 peptide; source: synthetic peptide, bought: Institute of Biomolecular Sciences (University of Southampton)
B4: 6× His human Eps15-MD (530–791) (domain or fragment, UniProt P42566 530-791, looked up)
chain: STSSSETANLNEHVEGQSNLESEPIHQESPARSSPELLPSGVTDENEVTTAVTEKVCSELDNNRHSKEEDPFNVDSSSLTGPVADTNLDFFQSDPFVGSDPFKDDPFGKIDPFGGDPFKGSDPFASDCFFRQSTDPFATSSTDPFSAANNSSITSVETLKHNDPFAPGGTVVAASDSATDPFASVFGNESFGGGFADFSTLSKVNNEDPFRSATSSSVSNVVITKNVFEETSVKSEDEPPALPPKIGTPTRPCPLPPGKRSI
notes: Eps15 motif domain, human, residues 530-791 (STSSSE…GKRSI); The His-tagged form is named for SPR; also called 6× His hEps15-MD; motif domain of Eps15; source: recombinant (pET28c), purified

Legend:
Test in all cases: ITC; VP-ITC; 100 mM HEPES, 50 mM NaCl, 2 mM DTT pH 7.4 at 10 °C; peptides or proteins injected from the syringe into the cell
Conditions in all cases: both partners purified
[1] = target: T1, human β2-appendage (700–937) R879A used …
[2] = target: B2
[3] = target: B4

Binder: B1
fold stronger than with the wild-type appendage [1]: 10 fold
Kd [2]: ~2 µM

Binder: B2
Kd [3]: ~20 µM

Binder: B3
Kd [2]: 46 µM

Binder: B4
stoichiometry N [2]: 2
